Assays:
[1] = target: T1, GST-TARDBP (TDP-43) (human, UniProt Q13148 1-414); assay: EMSA; 2 ug protein; settings: protein: recombinant; tags: N-terminal GST (pGEX-4T-1); label: 3' biotin; single strand
[2] = target: T1, GST-TARDBP (TDP-43); assay: EMSA; settings: protein: recombinant; tags: N-terminal GST (pGEX-4T-1); label: 3' biotin; single strand
[3] = target: T1, GST-TARDBP (TDP-43); assay: EMSA; dose dependent; supershifted by anti-TARDBP (Fig. 6d); settings: protein: recombinant; tags: N-terminal GST (pGEX-4T-1); label: 3' biotin; single strand
[4] = target: T1, GST-TARDBP (TDP-43); assay: EMSA; 2 ug protein; binding unaffected; settings: protein: recombinant; tags: N-terminal GST (pGEX-4T-1); label: 3' biotin; single strand
[5] = target: T1, GST-TARDBP (TDP-43); assay: competition; 0-200 fold unlabeled competitor; settings: protein: recombinant; tags: N-terminal GST (pGEX-4T-1); single strand

T1 sequence (Q13148 whole entry): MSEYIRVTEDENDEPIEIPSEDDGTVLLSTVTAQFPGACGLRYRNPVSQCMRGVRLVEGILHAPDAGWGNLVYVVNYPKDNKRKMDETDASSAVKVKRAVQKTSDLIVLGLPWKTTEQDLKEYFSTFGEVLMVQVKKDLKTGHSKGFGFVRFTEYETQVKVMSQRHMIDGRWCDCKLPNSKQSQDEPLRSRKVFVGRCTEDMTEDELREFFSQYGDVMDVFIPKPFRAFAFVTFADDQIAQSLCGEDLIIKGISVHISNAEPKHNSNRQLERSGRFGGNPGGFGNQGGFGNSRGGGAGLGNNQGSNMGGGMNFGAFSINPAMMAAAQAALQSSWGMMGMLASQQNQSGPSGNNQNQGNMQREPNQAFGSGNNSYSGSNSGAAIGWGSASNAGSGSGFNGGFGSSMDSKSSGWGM

Row | Binder | binding result [1] | binding result [2] | also measured
1 | CTGGTGAACAGACCAATTTATGCCTACAGCCTCCTAGTACAAAGAC (ssDNA) [AS probe 2 (adjacent)] | no binding |  | 
2 | CAGAGGTGAAAAAGTTGCATGGTG (ssDNA) [fragment s3] |  | no binding | 
3 | AAAGTTGCATGGTGCTGGTGAACA (ssDNA) [fragment s4] |  | no binding | 
4 | GGTGAAAAAGTTGCATGGTGCTGGTGAA (ssDNA) [fragment s2] |  | no binding | 
5 | ATGAGATGATTAGGCAGAGGTGAAAAAGTTGCATGGTGCTGGTGAA (ssDNA) [AS probe 1 (WT, nt1804-1849)] |  |  | binding result [3]: binds
6 | ATGAGATGATTAGGCAGAGGTGAAAAAGTTGCATAGTACTCGTGAA (ssDNA) [AS Mutant 5] | no binding |  | 
7 | ATGAGATGATTAGGCAGAGGTGCTAGCGTTGCATGGTGCTGGTGAA (ssDNA) [AS Mutant 3 (central A5 repeat mutated)] |  |  | binding result [4]: binds
8 | ATGAGATGATTAGGCAGAGGTGAAAAAGTTGCATGGTGCTGGTGAA (ssDNA) [AS probe 1 unlabeled competitor] |  |  | binding result [5]: binds
9 | ATGAGATGATTAAGCATAGGCGAAAAAGTTGCATGGTGCTGGTGAA (ssDNA) [AS Mutant 2] | no binding |  | 
10 | ATCAGACGACTAGGCAGAGGTGAAAAAGTTGCATGGTGCTGGTGAA (ssDNA) [AS Mutant 1] | no binding |  | 
11 | ATGAGATGATTAGGCAGAGGTGAAAAAGCTACATAGTACTGGTGAA (ssDNA) [AS Mutant 4] | no binding |  | 
12 | ATGAACATGAGATGATTAGGCAGAGGTG (ssDNA) [fragment s1] |  | no binding | 

Reference: publication PMC6560085
